The data set is described as follows: soluble on expression in E. coli; label from the status in PepcDB or PDB records.
As for “LFSCIISSIETTKYVGISGVNKSVIDYTPAADMELVTIGESLSLKHPPIDATGCPSPATITRAAVDLLKIPIMTIDAGSYVKPKIPYISVDQRPTGDIQKGLGMDNSKELLNLGKIIGNNNIYDSLVIGESVPGGTTTALGVLLGLGYDARDKISSGSVENPKDLKLSVVENGLKTCKSEDVFDVLNAVGDKMMPVVAGMTISAVSKGK”, the “soluble on expression in E. coli” value is given as “not soluble”. Regarding “LGNEDFNSVIQQMAQGRQIEYIDIERPSTGGLGFSVVALRSQNLGKVDIFVKDVQPGSVADRDQRLKENDQILAINHTPLDQNISHQQAIALLQQTTGSLRLIVAREPVHTKSST”, the “soluble on expression in E. coli” value is listed as “soluble”. The entry for “LKDFRYGIRLTGTTIKNEVISLGGKRIASGDIGAGKSVQMTEEGKPIKYFYGYNVIGIFQNEAQIKDYNERAAAATGNAGQQYQNNVGPGDLIYEDVDGDGYITANDRKDLGSPTPKFIGGLGISAFWKGFDLSIDFQGNFGNKIFNAKQVERFSGSDNWDRSFLDRWTPENPNTMTPRMTLEGNNYQVSSRYVESGSYVKLQTVELGYTFPKSWMQKVSVQNLRVYFSGNNLAYFTGYNGFTPEVLGGIDRQIYPVTATCRFGLNVTF” is “not soluble”. For “LKPYCRPSTSVVLQGLPMVARKTLFMLPDGGGSAFSYASLPRLKSDTAVVGLNCPYARDPENMNCTHGAMIESFCNEIRRRQPRGPYHLGGWSSGGAFAYVVAEALVNQGEEVHSLIIIDAPIPQAMEQLPRAFYEHCNSIGLFATQPGASPDGSTEPPSYLIPHFTAVVDVMLDYKLAPLHARRMPKVGIVWAADTVMDERDAPKMKGMHFMIQKRTEFGPDGWDTIMPGASFDIVRADGANHFTLMQKEHVSIISDLIDRVMA”, the “soluble on expression in E. coli” value is recorded as “soluble”. Under “LLGLGVGPGDPELITLKALRLLRAAPVVGYFVAKGKKGNAFGIIEAHLDQAQVRLPLVYPVTTEKLEPPLCYETIISDFYDTAAEQLAAHLDAGRDVAVICEGDPFFYGSYMYLHDRLATRYESEVVPGVCSMLGGAAVLGAPLVYRNQSLSVLSGVLPEEELRRRLADADAAVVMKLGRNFDKVRRVLVELGLERRALYVERATMANQRIVPLERVEPMASPYFSLIVVPGDKWQGGAGGE” stands “not soluble”; under “LLGNTIHVPCQPCRHGHGAPSRGLRGRPADRWPVARATPTLHVCPQNQGVGLDFVRKPEYGRLRWPAYPAGTNNDRLISMRDGGIVALPQLTDEQRAAALEKAAAARRARAELKDRLKRGGTNLTQVLKDAESDEVLGKMKVSALLEALPKVGKVKAQEIMTELEIAPTRRLRGLGDRQRKALLEKFGSA”, “soluble”. Under “LLLGDEAIAQAALDAGLSGVYAYPGTPSTEITEYIQMAPITSERNIHNRWCANEKTAMEAALGMSFVGKRALVCMKHVGMNVAADCFINSAITGVKGGLIVVAADDPSMHSSQNEQDSRFYGDFSLIPMYEPSNQQEAYDMVYNGFEFSEKIGEPILMRMVTRLAHSRSGVENKAQKPQNEISFSEDPRQFILLPGNARKRYKVLLTRQEEFIKASEESPYNRYIDGPNKKTGIVACGIGYNYLMENYPEGCEYPVLKVGQYPLPKKQLMQLIDACDEILVLEDGQPFVEKQLKGYLGIGLKVKGRLDGTLSQDGELNPDTVARALGKENSSEFNVPNIVEMRPPALCEGCGHRDMYITLTQVLKEEYPTHKVFSDIGCYTLGANAPFNAINSCVDMGASITMAKGASDGGLHPAVAVIGDSTFTHSGMTGLLDCVNENANVTIVISDNETTAMTGGQDSAGTGRLEAICAGLGVDPAHIRVVVPLK” stands “not soluble”. Under “LLPGAPDCRVYGWIYSSPTPGRAWVLLVHGLGGDHTFFEEPLGGYRVAYDLALRGFKVLAIDAAGHGESCIPGGESWRDKALTLEPGEFFLYHVYLSGVRAVEAALELGAEPG” stands “not soluble”. With “LLVDKKVSVNDVDIGLISLQYLNIIANYTNKKAIEKITDYLVITSKILAKKADNLLNDHQEESVLEYDLATNNFRDKMIANLVEHKRYCDSLGEFEKLRVNRLAYFSKANEMEQFIKTANDQLVTVEDQLPNYISVLKLFHAMNKLLEMRLSSLLTNKNITIKELSVEQVQKELVLAIKQFNYQTVSLKRVLLKLN”, the “soluble on expression in E. coli” value is recorded as “not soluble”. As for “LPENGPEFKIEISLLKDQARVMIDTTGPSLFKRGYRTEKGGAPIKENMAAAIILLSNWFPDKPFVDPTCGSGTFCIEAAMIGMNIAPGFNRDFAFEEWPWVDEALVTRVRNEADEQADYDIQLDISGFDFDGRMVEIARKNAREVGLEDVVKLKQMRLQDFKTNKINGVLISNPPYGERLLDDKAVDILYNEMGETFAPLKTWSQFILTNDTDFEQKFGRKADKKRKLYNGSLKVDLYQFYGQRVKRVLR”, the “soluble on expression in E. coli” value is listed as “not soluble”.

For the sequence “LPKNLMVRLRSNTEPLSKKLRVVADYVLENAHEVQYQTITDLAFNTKTSEATVVRLCRDLGYKGYSDFRMALAVDLSQSANQSQPKMDGDICEVSAQSAVDSLMDTAKLIDRAALNRICELVHGAK”, the “soluble on expression in E. coli” value is on record as “not soluble”. In the case of “LPQSVSRAAITAAYRRPETEAVSMLLEQARLPQPVAEQAHKLAYQLADKLRNQKNASGRAGMVQGLLQEFSLSSQEGVALMCLAEALLRIPDKATRDALIRDKISNGNWQSHIGRSPSLFVNAATWGLLFTGKLVSTHNEASLSRSLNRIIGKSGEPLIRKGVDMAMRLMGEQFVTGETIAEALANARKLEEKGFRYSYDMLGEAALTAADAQAYMVSYQQAIHAIGKASNGRGIYEGPGISIKLSALHPRYSRAQYDRVMEELYPRLKSLTLLARQYDIGINIDAEESDRLEISLDLLEKLCFEPELAGWNGIGFVIQAYQKRCPLVIDYLIDLATRSRRRLMIRLVKGAYWDSEIKRAQMDGLEGYPVYTRKVYTDVSYLACAKKLLAVPNLIYPQFATHNAHTLAAIYQLAGQNYYPGQYEFQCLHGMGEPLYEQVTGKVADGKLNRPCRIYAPVGTHETLLAYLVRRLLENGANTSFVNRIADTSLPLDELVADPVTAVEKLAQQEGQTGLPHPKIPLPRDLYGHGRDNSAGLDLANEHRLASLSSALLNSALQKWQALPMLEQPVAAGEMSPVINPAEPSSSVDKLAAALEHHHHHH”, the “soluble on expression in E. coli” value is “soluble”. The entry for “LQQQEEETYADACDEFLDPIMSTLMCDPVVLPSSRVTVDRSTIARHLLSDQTDPFNRSPLTMDQIRPNTELKEKIQRWLAERKQQ” is “soluble”; for “LRPEDFTTLLQTADFRLRLLEAIAAATRRVYICALYLENEEAGQEMLDALYRAKQRNPQLDVRVMVDWHRAQRGRIGEDQSHCNASWYREEAARRELDIPIYGVPVQTRELFGVLHLKGFVIDDTVFYSGASLNNVYLHKLDKYRFDRYHLIRSPELADAMAGFMAEQFFNDPAVFRLD” it is “not soluble”; for “LSQEETELELLRQFDLAWQYGPCTGITRLQRWHRAEQMGLKPPVEVYQVLKTHPEDSRFQCSLWHLYPL” it is “not soluble”. The entry for “LSSLLKAANLARSTYYYQMATGQAEDRHGALKERIQHIYAQHKGRYGYRRITATLRRAGTLVNHKTVQRLMSALQLKSLVRPKKYRSYLGQVGRVAPNLLQREFEASKPNEKWVTDVTEFNVGGKKLYLSPVLDLYNGEIVAWQTSERPDYTLIREMLDKALRKLRPCETPMLHSDQGWPYQMAAYRRKLAARGLRQSMSRKGNCLDNAAMESFFGTLKSECFRLERFADIDQLRRAIAEYIRYYNHERIKIKLKGLSPVQYRTQPLAA” is “soluble”; for “LTFSLNFTNKSNDIYGTGWLFDWKGDEKALGIDGSFVPSITSNIDNSLLKDDQFTVYLATNLHVADALRNDQDYEPYKKDQNKQDFTENTKTEFFSLGK” it is “soluble”; for “LTQPLDHRHPEKGSFRQRVIVGHVGYDRPTVIVTEGYGAGYALRPTYREELSELFDANMIFVEHRYFLESTPEPCDWQYLTAENSAEDLHAVTTAFKTLYPGKWISTGISKGGQTSLLYRVFFPDDVDVSVPYVAPLCYAREDGRHEPFLRRVGTEADRKKIEDFQLEVLKRKARLLPRFEKMCTEKNYTFRAPLEEIYDFCVLEYSFSIWQWGTDIRSIPETSASDDTLLDHLLAISGPSYFIVDSPTLSFFVQAARELGYYGYDIAPFKPYLSIKTSKDYLRRLMLPEDMRKMKFDKTLSNKIVRFLKKNDPKMIFIYGQNDPWTAAGVTWLKNKKNIHVFVEPGGSHLARIGTMSEDQKQKVMSLLRGWLEE” it is “not soluble”. Under “LVFDEEGNSSWIATDTVKVAASRPVELNPFYIDTVYEVSGKKIAYMVYNEFSTGPNNQATDTEYREQMKQIFARFKGQSPDAFILDLRYNPGGYLSCATDLGSYLAPAADLGKVFCTTLYNDISDPQKIDFPLNTGLASENLNLSKLYVLTSKFTASASEAVINCLRPYIGTENVVVIGETTVGKNVAMEPYQDERYNFILWPVVAYVLNSAGQANYVNGITPDFTLSER” stands “not soluble”; under “MAAAAELRLLEKSLGLKPGNKYSAQGERQIPVLQTNNGPSLMGLSTIATHLVKQASKEHLLGSTAEEKAMVQQWLEFRVTRVDGHSSKEDTQTLLKDLNSYLEDKVYLAGHNITLADILLYYGLHRFIVDLTVQEKEKYLNVSRWFCHIQHYPDIRQHLSSIVFIKNRLYANSH”, “not soluble”; under “MAAEKKVFVIFDHQEQRHDQPWPSYHIEVPRRLDAILERLNTTKLLTDPRIEHIPRREAEESEILAVHTKRYVDDVKSTETMTVEQQESFCTKYEDIYVNSATWHRAKLAAGASIDLMTSVMAAKRPGIAFIRPPGHHAMPDEGCGFCIFNNVAIAAKAAIQNGQKVLIVDYDVHAGNGTQECVEQMGEGNVQLISIHRYENGHFWPNMPQTGIYHNYKNTINLPLNTIGLTDADYHALFTHIILPTIHAFQPDLLLVSSGFDASIGDPEGSMQVTPAGFATMIRMLIDTGIPVAALLEGGYFLDALAADSEWVLRALLGEEIPRIRVEKIHSAIADTIGRVVKRYEGSCPFFKKVQELRGILGCRVAEEDQQEEATDYTGERTVHPPYETRGIYTPFTEQKVAEFKDQLESILASYTTPPDFSAETEAFHSAIAPHSSEINDFYFGVHEDKILLGTSPAVRLFFELLFTAPYDPKHTIKLYGKVKPEDFGKIELDSRSLGEMKNISIFNNLPIFQL”, “not soluble”. As for “MAAHSIFTTTSTTNSFLYPISSSSSSPNINSSFLGVSLNVNAKFGQSLTLYAVTTPKPLTVFAATKKAVAVLKGNSNVEGVVTLSQDDDGPTTVNVRITGLAPGLHGFHLHEYGDTTNGCMSTGAHFNPNKLTHGAPGDEIRHAGDLGNIVANADGVAEVTLVDNQIPLTGPNSVVGRALVVHELEDDLGKGGHELSLTTGNAGGRLACGVVGLTPI”, the “soluble on expression in E. coli” value is recorded as “soluble”. Under “MAAIDLNSDLGESYGAWRMGDDEAMLAIVSSANIACGFHAGDPAGIYRTVKAAAEKGVVVGAHVSYPDRVGFGRRDLDATSEELIADVIYQIGALKGVAAAAGTTVRYVKPHGALYNRIANDAKQGQAVIDGIKAIDPSLVLMGLANAPILDLARKAGLAVVAEAFADRAYTPEGQLVSRREAGAVLHDAAKIAERMVQLAREGTLEAIDGSIIKIEAQSICVHGDSPGAVAIAQEIRRRFEADGIAIRSFASDRLEHHHHHH” stands “not soluble”; under “MAAKDRIQAIKQMVANDKKVTVSNLSGIFQVTEETIRRDLEKLEDEGFLTRTYGGAVLNTAVLTENIHFYKRASSFYEEKLLIARKALPFIDNKTTMAADSSSTVMELLKLLQDRSDLTLLTNSAEAIHVLAQSEIKVVSTGGELNKNTLSLQGRITKEIISRYHVDIMVMSCKGLDINSGALDSNEAEAEIKKTMIRQATEVALLVDHSKFDRKAFVQLADFSHINYIITDKSPGAEWIAFCKDNNIQLVWLEHHHHHH”, “soluble”.

Values taken from the DeepSol protein solubility set.
